Results published in article PMC2582951.

Target: cerFP505 (ceriantharian fluorescent protein with an emission maximum at 505 nm) (deep sea ceriantharian (taxon Spirularia, species not determined))
Test: SEC; elution profile of purified recombinant cerFP505; conditions as described in refs 43, 44

cerFP505 (ceriantharian fluorescent protein with an emission maximum at 505 nm) (natural protein)
stoichiometry N: 4
